In patent publication US20070077617:
Positions count from the first letter of the chain named. Names may count otherwise.

Legend:
[1] = target: fusion protein PMT
[2] = target: fusion protein PRA
[3] = target: fusion protein PRC
[4] = target: fusion protein PRD
[5] = target: fusion protein PRE
[6] = target: fusion protein PRF
[7] = target: fusion protein PRG
[8] = target: fusion protein PRH
[9] = target: fusion protein PRI
[10] = target: fusion protein PRK
[11] = target: fusion protein PRL
[12] = target: fusion protein PRM
[13] = target: fusion protein PRMT; settings: scale: relative
[14] = target: fusion protein PRN
[15] = target: fusion protein PRP
[16] = target: fusion protein PRQ
[17] = target: fusion protein PRR
[18] = target: fusion protein PRS
[19] = target: fusion protein PRT
[20] = target: fusion protein PRW
[21] = target: fusion protein PRY
[22] = target: motilin fusion protein PMT6D
[23] = target: motilin fusion protein PMT7D
[24] = target: human adrenocorticotropic hormone(1-24) fusion protein PAC
[25] = target: human calcitonin precursor fusion protein PCT
Chain of human calcitonin precursor fusion protein PCT (chain, as listed by the source): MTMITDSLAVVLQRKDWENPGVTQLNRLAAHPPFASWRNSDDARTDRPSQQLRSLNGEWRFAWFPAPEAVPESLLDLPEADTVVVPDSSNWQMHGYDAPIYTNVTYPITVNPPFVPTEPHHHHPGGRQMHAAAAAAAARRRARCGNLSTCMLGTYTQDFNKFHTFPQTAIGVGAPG

Chain of fusion protein PRY (chain, as listed by the source): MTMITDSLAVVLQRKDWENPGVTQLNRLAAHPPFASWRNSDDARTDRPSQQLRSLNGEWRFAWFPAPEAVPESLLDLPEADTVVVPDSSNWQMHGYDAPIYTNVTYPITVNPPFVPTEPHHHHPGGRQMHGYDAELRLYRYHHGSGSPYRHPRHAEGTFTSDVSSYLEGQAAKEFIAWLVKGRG
Chain of fusion protein PRK (chain, as listed by the source): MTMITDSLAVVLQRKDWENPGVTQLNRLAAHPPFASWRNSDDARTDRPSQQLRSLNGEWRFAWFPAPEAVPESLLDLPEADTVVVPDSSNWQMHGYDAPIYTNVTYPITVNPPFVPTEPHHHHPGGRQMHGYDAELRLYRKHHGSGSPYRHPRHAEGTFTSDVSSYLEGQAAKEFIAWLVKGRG
Chain of fusion protein PRA (chain, as listed by the source): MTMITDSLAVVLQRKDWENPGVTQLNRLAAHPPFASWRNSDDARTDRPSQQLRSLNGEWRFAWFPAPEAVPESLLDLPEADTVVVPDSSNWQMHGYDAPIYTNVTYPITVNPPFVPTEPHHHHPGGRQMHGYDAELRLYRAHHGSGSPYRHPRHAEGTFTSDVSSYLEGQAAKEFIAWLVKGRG
Chain of fusion protein PRT (chain, as listed by the source): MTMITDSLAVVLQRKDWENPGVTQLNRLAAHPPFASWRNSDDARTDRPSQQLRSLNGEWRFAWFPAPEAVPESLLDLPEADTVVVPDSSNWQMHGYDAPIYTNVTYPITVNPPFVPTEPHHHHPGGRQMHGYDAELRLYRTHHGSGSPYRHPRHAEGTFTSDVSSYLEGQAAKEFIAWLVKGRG
Chain of fusion protein PRW (chain, as listed by the source): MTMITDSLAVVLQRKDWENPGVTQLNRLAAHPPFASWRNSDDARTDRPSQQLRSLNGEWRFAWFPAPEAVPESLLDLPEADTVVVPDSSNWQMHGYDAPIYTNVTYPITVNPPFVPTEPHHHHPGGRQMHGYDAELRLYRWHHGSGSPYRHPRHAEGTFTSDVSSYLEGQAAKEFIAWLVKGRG
Chain of motilin fusion protein PMT6D (chain, as listed by the source): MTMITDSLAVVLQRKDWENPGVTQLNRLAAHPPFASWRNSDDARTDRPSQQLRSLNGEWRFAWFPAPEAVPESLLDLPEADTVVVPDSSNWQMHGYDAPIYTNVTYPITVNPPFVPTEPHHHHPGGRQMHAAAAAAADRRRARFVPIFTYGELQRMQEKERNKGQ
Chain of fusion protein PRI (chain, as listed by the source): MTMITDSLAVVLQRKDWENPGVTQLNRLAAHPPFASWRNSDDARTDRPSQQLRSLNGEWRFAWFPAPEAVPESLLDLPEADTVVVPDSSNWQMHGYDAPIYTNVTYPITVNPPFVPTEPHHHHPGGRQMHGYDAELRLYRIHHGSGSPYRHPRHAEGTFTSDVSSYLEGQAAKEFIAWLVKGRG
Chain of fusion protein PRM (chain, as listed by the source): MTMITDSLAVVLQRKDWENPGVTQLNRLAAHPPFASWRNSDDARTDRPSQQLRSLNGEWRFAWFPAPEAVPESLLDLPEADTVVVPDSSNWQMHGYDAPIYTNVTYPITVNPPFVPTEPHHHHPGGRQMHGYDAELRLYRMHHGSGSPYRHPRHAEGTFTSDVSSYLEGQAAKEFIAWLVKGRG
Chain of fusion protein PRF (chain, as listed by the source): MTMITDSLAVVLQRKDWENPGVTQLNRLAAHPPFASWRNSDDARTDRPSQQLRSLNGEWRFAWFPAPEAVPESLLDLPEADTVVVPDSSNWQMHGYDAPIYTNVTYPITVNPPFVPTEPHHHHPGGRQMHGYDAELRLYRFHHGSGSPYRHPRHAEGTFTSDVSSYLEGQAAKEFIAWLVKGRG
Chain of fusion protein PRQ (chain, as listed by the source): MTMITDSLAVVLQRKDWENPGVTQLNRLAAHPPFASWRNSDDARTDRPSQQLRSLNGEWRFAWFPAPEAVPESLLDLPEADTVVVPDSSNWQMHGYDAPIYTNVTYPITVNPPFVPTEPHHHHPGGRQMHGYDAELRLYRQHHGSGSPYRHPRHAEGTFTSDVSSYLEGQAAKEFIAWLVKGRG
Chain of fusion protein PRG (chain, as listed by the source): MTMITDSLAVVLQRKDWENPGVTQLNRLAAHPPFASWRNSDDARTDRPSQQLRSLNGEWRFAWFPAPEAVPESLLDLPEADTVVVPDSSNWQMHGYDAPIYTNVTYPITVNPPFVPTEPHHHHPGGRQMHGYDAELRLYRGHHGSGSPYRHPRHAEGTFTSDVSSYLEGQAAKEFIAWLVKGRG
Chain of fusion protein PRD (chain, as listed by the source): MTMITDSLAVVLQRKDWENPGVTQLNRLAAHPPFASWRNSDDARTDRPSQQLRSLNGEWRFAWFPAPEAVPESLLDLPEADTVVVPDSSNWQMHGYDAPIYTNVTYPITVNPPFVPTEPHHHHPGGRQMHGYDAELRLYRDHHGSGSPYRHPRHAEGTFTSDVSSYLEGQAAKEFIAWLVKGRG
Chain of fusion protein PRE (chain, as listed by the source): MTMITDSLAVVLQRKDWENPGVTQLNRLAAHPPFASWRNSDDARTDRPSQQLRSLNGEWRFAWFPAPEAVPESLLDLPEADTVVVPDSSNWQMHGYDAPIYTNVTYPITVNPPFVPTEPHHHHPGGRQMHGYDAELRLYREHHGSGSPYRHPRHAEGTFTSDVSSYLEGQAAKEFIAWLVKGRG
Chain of fusion protein PRS (chain, as listed by the source): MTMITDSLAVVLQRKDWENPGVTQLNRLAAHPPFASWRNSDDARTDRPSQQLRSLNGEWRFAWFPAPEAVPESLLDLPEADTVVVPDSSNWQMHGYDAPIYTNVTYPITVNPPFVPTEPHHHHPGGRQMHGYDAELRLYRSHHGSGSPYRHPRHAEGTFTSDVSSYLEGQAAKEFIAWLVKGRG
Chain of fusion protein PRL (chain, as listed by the source): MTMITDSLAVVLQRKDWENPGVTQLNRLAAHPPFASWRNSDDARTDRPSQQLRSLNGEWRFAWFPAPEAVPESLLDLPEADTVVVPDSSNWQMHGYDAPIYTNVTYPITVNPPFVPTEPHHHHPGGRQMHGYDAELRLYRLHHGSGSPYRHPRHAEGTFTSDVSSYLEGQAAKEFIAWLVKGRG
Chain of fusion protein PRR (chain, as listed by the source): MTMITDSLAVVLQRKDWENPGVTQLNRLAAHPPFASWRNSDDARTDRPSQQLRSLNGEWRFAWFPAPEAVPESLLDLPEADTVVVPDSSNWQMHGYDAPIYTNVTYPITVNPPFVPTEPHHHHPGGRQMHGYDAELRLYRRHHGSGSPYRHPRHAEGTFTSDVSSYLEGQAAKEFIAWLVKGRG
Chain of fusion protein PMT (chain, as listed by the source): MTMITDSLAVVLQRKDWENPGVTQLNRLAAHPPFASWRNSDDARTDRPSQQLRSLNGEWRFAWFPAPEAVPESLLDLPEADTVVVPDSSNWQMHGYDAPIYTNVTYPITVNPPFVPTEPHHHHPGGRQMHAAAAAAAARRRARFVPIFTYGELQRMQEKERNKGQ
Chain of fusion protein PRC (chain, as listed by the source): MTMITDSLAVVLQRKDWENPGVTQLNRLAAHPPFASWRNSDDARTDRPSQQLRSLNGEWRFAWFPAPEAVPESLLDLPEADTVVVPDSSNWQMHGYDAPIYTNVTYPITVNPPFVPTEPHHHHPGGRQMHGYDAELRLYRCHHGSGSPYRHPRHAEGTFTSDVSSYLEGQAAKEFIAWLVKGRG
Chain of fusion protein PRN (chain, as listed by the source): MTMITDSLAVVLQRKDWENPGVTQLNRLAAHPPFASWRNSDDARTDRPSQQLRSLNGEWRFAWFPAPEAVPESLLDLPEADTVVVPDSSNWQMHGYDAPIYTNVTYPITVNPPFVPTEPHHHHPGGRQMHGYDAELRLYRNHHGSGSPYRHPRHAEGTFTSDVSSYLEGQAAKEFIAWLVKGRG
Chain of fusion protein PRH (chain, as listed by the source): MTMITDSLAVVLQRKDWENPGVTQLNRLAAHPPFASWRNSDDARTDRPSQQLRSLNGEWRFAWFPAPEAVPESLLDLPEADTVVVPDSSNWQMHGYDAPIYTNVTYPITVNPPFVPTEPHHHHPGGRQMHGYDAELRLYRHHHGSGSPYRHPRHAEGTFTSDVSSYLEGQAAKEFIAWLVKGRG
Chain of human adrenocorticotropic hormone(1-24) fusion protein PAC (chain, as listed by the source): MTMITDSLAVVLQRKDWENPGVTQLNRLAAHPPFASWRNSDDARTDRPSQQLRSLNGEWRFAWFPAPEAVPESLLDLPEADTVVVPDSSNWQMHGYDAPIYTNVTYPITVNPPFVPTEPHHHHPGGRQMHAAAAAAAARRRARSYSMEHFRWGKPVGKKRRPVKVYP
Chain of motilin fusion protein PMT7D (chain, as listed by the source): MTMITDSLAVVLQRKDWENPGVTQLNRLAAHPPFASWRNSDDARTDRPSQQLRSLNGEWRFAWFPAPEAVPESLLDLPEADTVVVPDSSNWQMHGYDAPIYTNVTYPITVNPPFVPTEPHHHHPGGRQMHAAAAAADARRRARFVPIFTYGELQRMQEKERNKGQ
Chain of fusion protein PRMT (chain, as listed by the source): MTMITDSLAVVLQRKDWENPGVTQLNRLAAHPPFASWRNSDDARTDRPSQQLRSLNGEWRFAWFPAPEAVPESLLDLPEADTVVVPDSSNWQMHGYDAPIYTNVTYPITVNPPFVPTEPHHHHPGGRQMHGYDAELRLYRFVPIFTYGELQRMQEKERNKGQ

B1: OmpT protease variant OmpT D97M (protein)
chain: STETLSFTPDNINADISLGTLSGKTKERVYLAEEGGRKVSQLDWKFNNAAIIKGAINWDLMPQISIGAAGWTTLGSRGGNMVDQDWMDSSNPGTWTMESRHPDTQLNYANEFDLNIKGWLLNEPNYRLGLMAGYQESRYSFTARGGSYIYSSEEGFRDDIGSFPNGERAIGYKQRFKMPYIGLTGSYRYEDFELGGTFKYSGWVESSDNDEHYDPGKRITYRSKVKDQNYYSVAVNAGYYVTPNAKVYVEGAWNRVTNKKGNTSLYDHNNNTSDYSKNGAGIENYNFITTAGLKYTF
amount of motilin released, against PRMT [1]: the amount of motilin released from PMT was 3.5 times higher than from PRMT
by-product AR-motilin (motilin = 100) [1]: By-products were yielded at 2.8 and 33% with PMT
by-product RRAR-motilin (motilin = 100) [1]: By-products were yielded at 2.8 and 33% with PMT
digestion (SDS-PAGE), co-expressed inclusion bodies [1]: reaction of 1440 minutes, i.e. 24 hours, caused virtually complete digestion of the fusion protein PMT
motilin released [1]: Motilin was released at 280, 250 and 370 µg/mL from the motilin fusion proteins PMT, PMT6D and PMT7D, respectively
relative cleavage efficiency: Motilin (Arg^143-Phe^144) ([1]; scale: relative): 78
relative cleavage efficiency: RRAR-motilin (Arg^139-Arg^140) ([1]; scale: relative): 24
relative cleavage efficiency [2]: 6%
relative cleavage efficiency [3]: 6.5%
relative cleavage efficiency [4]: less than 3%
relative cleavage efficiency [5]: less than 3%
relative cleavage efficiency [6]: 7.7%
relative cleavage efficiency [7]: less than 3%
relative cleavage efficiency [8]: less than 3%
relative cleavage efficiency [9]: < 3%
relative cleavage efficiency [10]: < 3%
relative cleavage efficiency [11]: less than 3%
relative cleavage efficiency [12]: < 3%
relative cleavage efficiency: Motilin (Arg^140-Phe^141) [13]: 22
relative cleavage efficiency [14]: < 3%
relative cleavage efficiency [15]: less than 3%
relative cleavage efficiency [16]: less than 3%
relative cleavage efficiency [17]: < 3%
relative cleavage efficiency [18]: 7.1%
relative cleavage efficiency [19]: < 3%
relative cleavage efficiency [20]: less than 3%
relative cleavage efficiency [21]: 6.2%
by-product AR-motilin (motilin = 100) [22]: at 3.5 and 16% with PMT6D
by-product RRAR-motilin (motilin = 100) [22]: at 3.5 and 16% with PMT6D
motilin released [22]: Motilin was released at 280, 250 and 370 µg/mL from the motilin fusion proteins PMT, PMT6D and PMT7D, respectively
by-product RRAR-motilin [23]: no peak for RRAR-motilin was detected with PMT7D
motilin released [23]: Motilin was released at 280, 250 and 370 µg/mL from the motilin fusion proteins PMT, PMT6D and PMT7D, respectively

B2: OmpT protease variant OmpT D97L (protein)
chain: B1 chain with M97L
relative cleavage efficiency [2]: 7.1%
relative cleavage efficiency [3]: 3.9%
relative cleavage efficiency [4]: less than 3%
relative cleavage efficiency [5]: less than 3%
relative cleavage efficiency [6]: 4.7%
relative cleavage efficiency [7]: less than 3%
relative cleavage efficiency [8]: less than 3%
relative cleavage efficiency [9]: < 3%
relative cleavage efficiency [10]: < 3%
relative cleavage efficiency [11]: less than 3%
relative cleavage efficiency [12]: < 3%
relative cleavage efficiency [14]: < 3%
relative cleavage efficiency [15]: less than 3%
relative cleavage efficiency [16]: less than 3%
relative cleavage efficiency [17]: < 3%
relative cleavage efficiency [18]: 9.1%
relative cleavage efficiency [19]: < 3%
relative cleavage efficiency [20]: less than 3%
relative cleavage efficiency [21]: 3.2%
by-products [24]: No by-products were released by cleavage at other sites
release of human adrenocorticotropic hormone(1-24), against wild-type OmpT protease [24]: released human adrenocorticotropic hormone(1-24) at 2.9 times compared to wild-type OmpT protease

B3: OmpT protease variant OmpT D97R (protein)
chain: B1 chain with M97R
relative cleavage efficiency [2]: less than 3.0%
relative cleavage efficiency [3]: less than 3.0%
relative cleavage efficiency [4]: less than 3.0%
relative cleavage efficiency [5]: less than 3.0%
relative cleavage efficiency [6]: less than 3.0%
relative cleavage efficiency [7]: less than 3.0%
relative cleavage efficiency [8]: less than 3.0%
relative cleavage efficiency [9]: less than 3.0%
relative cleavage efficiency [10]: less than 3.0%
relative cleavage efficiency [11]: less than 3.0%
relative cleavage efficiency [12]: less than 3.0%
relative cleavage efficiency [14]: less than 3.0%
relative cleavage efficiency [15]: less than 3.0%
relative cleavage efficiency [16]: less than 3.0%
relative cleavage efficiency [17]: less than 3.0%
relative cleavage efficiency [18]: less than 3.0%
relative cleavage efficiency [19]: less than 3.0%
relative cleavage efficiency [20]: less than 3.0%
relative cleavage efficiency [21]: less than 3.0%

B4: OmpT protease variant OmpT D97H (protein)
chain: B1 chain with M97H
relative cleavage efficiency [2]: 8.4%
relative cleavage efficiency [3]: 11%
relative cleavage efficiency [4]: less than 3%
relative cleavage efficiency [5]: less than 3%
relative cleavage efficiency [6]: 4.1%
relative cleavage efficiency [7]: less than 3%
relative cleavage efficiency [8]: less than 3%
relative cleavage efficiency [9]: 3.1%
relative cleavage efficiency [10]: 4.5%
relative cleavage efficiency [11]: less than 3%
relative cleavage efficiency [12]: 4.6%
relative cleavage efficiency [14]: 3.5%
relative cleavage efficiency [15]: less than 3%
relative cleavage efficiency [16]: less than 3%
relative cleavage efficiency [17]: 4.6%
relative cleavage efficiency [18]: 8.7%
relative cleavage efficiency [19]: 3%
relative cleavage efficiency [20]: less than 3%
relative cleavage efficiency [21]: < 3%
cleavage (HPLC, mass analysis) [25]: PCT was cleaved at Arg^139-Arg^140. Arg^141-Ala^142 and Arg^143-Cys^144 by D97H, releasing RRAR-CT, AR-CT and human calcitonin precursor

B5: OmpT protease variant OmpT D97Y (protein)
chain: B1 chain with M97Y
relative cleavage efficiency [2]: less than 3.0%
relative cleavage efficiency [3]: less than 3.0%
relative cleavage efficiency [4]: less than 3.0%
relative cleavage efficiency [5]: less than 3.0%
relative cleavage efficiency [6]: less than 3.0%
relative cleavage efficiency [7]: less than 3.0%
relative cleavage efficiency [8]: less than 3.0%
relative cleavage efficiency [9]: less than 3.0%
relative cleavage efficiency [10]: less than 3.0%
relative cleavage efficiency [11]: less than 3.0%
relative cleavage efficiency [12]: less than 3.0%
relative cleavage efficiency [14]: less than 3.0%
relative cleavage efficiency [15]: less than 3.0%
relative cleavage efficiency [16]: less than 3.0%
relative cleavage efficiency [17]: less than 3.0%
relative cleavage efficiency [18]: less than 3.0%
relative cleavage efficiency [19]: less than 3.0%
relative cleavage efficiency [20]: less than 3.0%
relative cleavage efficiency [21]: less than 3.0%

B6: OmpT protease variant OmpT D97G (protein)
chain: B1 chain with M97G
relative cleavage efficiency [2]: less than 3.0%
relative cleavage efficiency [3]: less than 3.0%
relative cleavage efficiency [4]: less than 3.0%
relative cleavage efficiency [5]: less than 3.0%
relative cleavage efficiency [6]: less than 3.0%
relative cleavage efficiency [7]: less than 3.0%
relative cleavage efficiency [8]: less than 3.0%
relative cleavage efficiency [9]: less than 3.0%
relative cleavage efficiency [10]: less than 3.0%
relative cleavage efficiency [11]: less than 3.0%
relative cleavage efficiency [12]: less than 3.0%
relative cleavage efficiency [14]: less than 3.0%
relative cleavage efficiency [15]: less than 3.0%
relative cleavage efficiency [16]: less than 3.0%
relative cleavage efficiency [17]: less than 3.0%
relative cleavage efficiency [18]: less than 3.0%
relative cleavage efficiency [19]: less than 3.0%
relative cleavage efficiency [20]: less than 3.0%
relative cleavage efficiency [21]: less than 3.0%

B7: OmpT protease variant OmpT D97K (protein)
chain: B1 chain with M97K
relative cleavage efficiency [2]: less than 3.0%
relative cleavage efficiency [3]: less than 3.0%
relative cleavage efficiency [4]: less than 3.0%
relative cleavage efficiency [5]: less than 3.0%
relative cleavage efficiency [6]: less than 3.0%
relative cleavage efficiency [7]: less than 3.0%
relative cleavage efficiency [8]: less than 3.0%
relative cleavage efficiency [9]: less than 3.0%
relative cleavage efficiency [10]: less than 3.0%
relative cleavage efficiency [11]: less than 3.0%
relative cleavage efficiency [12]: less than 3.0%
relative cleavage efficiency [14]: less than 3.0%
relative cleavage efficiency [15]: less than 3.0%
relative cleavage efficiency [16]: less than 3.0%
relative cleavage efficiency [17]: less than 3.0%
relative cleavage efficiency [18]: less than 3.0%
relative cleavage efficiency [19]: less than 3.0%
relative cleavage efficiency [20]: less than 3.0%
relative cleavage efficiency [21]: less than 3.0%
